From patent US20260285964 (published 2026)

Assays:
mouse IL-36R (IL-1Rrp2) = target: T1, mouse IL-36R (IL-1Rrp2) (mouse, UniProt Q9ERS7)
T1 chain: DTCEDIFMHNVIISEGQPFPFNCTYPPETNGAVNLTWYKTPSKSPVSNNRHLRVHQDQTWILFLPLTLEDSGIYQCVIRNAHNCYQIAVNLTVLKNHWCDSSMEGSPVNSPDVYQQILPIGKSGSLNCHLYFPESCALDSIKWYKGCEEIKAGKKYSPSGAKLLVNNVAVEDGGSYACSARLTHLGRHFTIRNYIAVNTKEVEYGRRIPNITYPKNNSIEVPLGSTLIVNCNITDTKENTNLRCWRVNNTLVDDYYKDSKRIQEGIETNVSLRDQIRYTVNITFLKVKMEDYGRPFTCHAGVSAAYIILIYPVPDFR

rat IL-36R = target: T2, rat IL-36R (rat, UniProt Q62929)
T2 chain: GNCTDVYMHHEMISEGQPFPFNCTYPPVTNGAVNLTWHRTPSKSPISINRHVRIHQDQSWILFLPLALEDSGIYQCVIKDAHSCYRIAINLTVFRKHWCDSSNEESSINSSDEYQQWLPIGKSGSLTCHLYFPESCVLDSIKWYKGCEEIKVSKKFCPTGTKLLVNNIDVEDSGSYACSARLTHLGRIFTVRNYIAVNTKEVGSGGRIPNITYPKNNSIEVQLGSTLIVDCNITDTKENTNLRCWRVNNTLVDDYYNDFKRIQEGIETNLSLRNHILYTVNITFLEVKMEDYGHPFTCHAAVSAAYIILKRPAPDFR

binding result (mouse IL-36R (IL-1Rrp2)): no binding
binding result (rat IL-36R): no binding
B1: HB0034 (antibody, V domains shown)
VH: QVQLVQSGAEVKKPGASVKVSCKASGYTFTSSWMHWAKQAPGQGLEWIGEIHPNSAKTNYNQKFQGRVTMTRDTSISTAYMELSRLRSDDTAVYYCARVDYGKPWFAYWGQGTLVTVSS
VL: QIVLTQSPGTLSLSPGERATLSCRASSSVSSSYLHWYQQKPGQAPRLWIYSTSSRATGIPDRFSGSGSGTDFTLTISRLEPEDFATYYCQQFQSSPLTFGQGTKLEIK
